Source: patent publication US20170088593A1 (UNIVERSITY OF FLORIDA RESEARCH FOUNDATION, published 2017)

Biological target: Keap-1 (UniProt Q14145 1-624)
Assay: cell-based or functional assay

Chain of Keap-1 (Q14145 whole entry): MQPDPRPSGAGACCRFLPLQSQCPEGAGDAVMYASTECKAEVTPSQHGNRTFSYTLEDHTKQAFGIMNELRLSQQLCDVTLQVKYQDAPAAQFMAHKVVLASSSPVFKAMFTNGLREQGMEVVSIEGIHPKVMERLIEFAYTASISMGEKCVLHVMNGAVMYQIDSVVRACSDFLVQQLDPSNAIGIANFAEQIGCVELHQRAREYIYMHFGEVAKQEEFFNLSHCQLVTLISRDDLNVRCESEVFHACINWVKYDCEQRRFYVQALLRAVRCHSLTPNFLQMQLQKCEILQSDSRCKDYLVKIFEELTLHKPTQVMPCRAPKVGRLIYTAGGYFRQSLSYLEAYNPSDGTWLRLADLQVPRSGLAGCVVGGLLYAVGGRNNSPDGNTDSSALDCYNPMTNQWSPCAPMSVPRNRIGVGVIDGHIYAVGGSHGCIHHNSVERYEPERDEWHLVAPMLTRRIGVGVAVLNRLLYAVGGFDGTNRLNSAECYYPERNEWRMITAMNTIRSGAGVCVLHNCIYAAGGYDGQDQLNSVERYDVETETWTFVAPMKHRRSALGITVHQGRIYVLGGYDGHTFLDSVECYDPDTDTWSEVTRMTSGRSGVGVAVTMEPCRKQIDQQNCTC

RKKRRQRRRLQLDEETGEFLPIQ [TatNrf2-14mer peptide (HIV-1 Tat cell penetrating peptide fused to the Nrf2 14mer)]
GSTM1 mRNA (antioxidant enzyme and marker of the ARE response), RT-PCR in human retinal pigment epithelial cells treated with the TatNrf2 plasmid: 18 fold
